Assay results: the Immune Epitope Database (IEDB)
Values belong to the sequence of their own block, whether it stands above or below them.

Columns and labels:
[1] = target: HLA-B*18:01; test: IEDB peptide-MHC binding, purified MHC/competitive/radioactivity; filed as Kd, often an IC50 or EC50 that approximates it; ≥ and ≤ were set here for values at or beyond the usual limits of such assays
[2] = target: HLA-B*40:01; test: as above
[3] = target: HLA-B*40:02; test: as above
[4] = target: HLA-B*44:02; test: as above
[5] = target: HLA-B*44:03; test: as above
[6] = target: HLA-B*45:01; test: as above
[7] = target: HLA-B*15:03; test: as above; settings: source organism: Vaccinia virus WR
[8] = target: HLA-A*02:01; test: as above; settings: source organism: Homo sapiens
[9] = target: HLA-A*02:01; test: IEDB peptide-MHC binding, purified MHC/direct/fluorescence; filed as Kd, often an IC50 or EC50 that approximates it; ≥ and ≤ were set here for values at or beyond the usual limits of such assays; settings: source organism: Giardia lamblia ATCC 50803
[10] = target: HLA-A*03:01; test: as above; settings: source organism: Giardia lamblia ATCC 50803
[11] = target: HLA-A*11:01; test: as above; settings: source organism: Giardia lamblia ATCC 50803
[12] = target: HLA-A*26:01; test: as above; settings: source organism: Giardia lamblia ATCC 50803
[13] = target: HLA-A*31:01; test: as above; settings: source organism: Giardia lamblia ATCC 50803
[14] = target: HLA-A*69:01; test: as above; settings: source organism: Giardia lamblia ATCC 50803
[15] = target: HLA-B*07:02; test: as above; settings: source organism: Giardia lamblia ATCC 50803
[16] = target: HLA-B*08:01; test: as above; settings: source organism: Giardia lamblia ATCC 50803
[17] = target: HLA-B*15:01; test: as above; settings: source organism: Giardia lamblia ATCC 50803
[18] = target: HLA-B*15:17; test: as above
[19] = target: HLA-B*27:05; test: as above; settings: source organism: Giardia lamblia ATCC 50803
[20] = target: HLA-B*40:01; test: as above; settings: source organism: Giardia lamblia ATCC 50803
[21] = target: HLA-B*44:02; test: as above; settings: source organism: Giardia lamblia ATCC 50803
[22] = target: HLA-B*57:01; test: as above
[23] = target: HLA-B*58:01; test: as above
[24] = target: HLA-A*11:01; test: IEDB peptide-MHC binding, purified MHC/competitive/fluorescence; ≥ and ≤ were set here for values at or beyond the usual limits of such assays; settings: source organism: Variola virus
[25] = target: HLA-B*46:01; test: IEDB peptide-MHC binding, purified MHC/competitive/fluorescence; filed as Kd, often an IC50 or EC50 that approximates it; ≥ and ≤ were set here for values at or beyond the usual limits of such assays; settings: source organism: Brucella melitensis bv. 1 str. 16M
[26] = source organism: Mammarenavirus brazilense
[27] = source organism: Lassa virus Josiah
[28] = source organism: Mammarenavirus lassaense
[29] = source organism: SARS coronavirus Tor2
[30] = source organism: Lymphocytic choriomeningitis virus (strain Armstrong)
[31] = source organism: Giardia lamblia ATCC 50803
[32] = source organism: Mammarenavirus guanaritoense
[33] = source organism: Brucella melitensis
[34] = source organism: Mammarenavirus juninense

Sequence: IDNQKLSYL
Kd [1, 26]: ≥ 77.5 µM
Kd [2, 26]: ≥ 76.1 µM
Kd [3, 26]: 6.52 µM
Kd [4, 26]: ≥ 77.9 µM
Kd [5, 26]: ≥ 78.1 µM
Kd [6, 26]: 17.7 µM

Sequence: FKAKWLTPF
Kd [7]: 0.0731 nM

Sequence: FDAAVSGGL
Kd [1, 27]: ≥ 77.5 µM
Kd [2, 27]: ≥ 20 µM
Kd [3, 27]: 5.87 µM
Kd [4, 27]: ≥ 77.9 µM
Kd [5, 27]: ≥ 78.1 µM
Kd [6, 27]: ≥ 28.8 µM

Sequence: RLVRPFLVV
Kd [7]: 15.9 nM

Sequence: GEPKESTPM
Kd [1, 28]: ≥ 77.5 µM
Kd [2, 28]: 1.18 µM
Kd [3, 28]: 0.191 µM
Kd [4, 28]: 9.34 µM
Kd [5, 28]: ≥ 78.1 µM
Kd [6, 28]: ≥ 77.7 µM

Kd [8]: 0.173 µM
Sequence: WITQCFLPV

Sequence: GETALALLLL
Kd [1, 29]: ≥ 48.1 µM
Kd [2, 29]: 0.0161 µM
Kd [3, 29]: 0.0162 µM
Kd [4, 29]: 1.34 µM
Kd [5, 29]: 0.149 µM
Kd [6, 29]: 1.9 µM

Sequence: FSALPTNEF
Kd [7]: 0.13 nM

Sequence: ADQAIANGV
Kd [1, 30]: ≥ 33.8 µM
Kd [2, 30]: ≥ 73.5 µM
Kd [3, 30]: 3.33 µM
Kd [4, 30]: 14.9 µM
Kd [5, 30]: ≥ 30.2 µM
Kd [6, 30]: ≥ 20.7 µM

Kd [8]: 0.0011 µM
Sequence: SLFEGIDFYT

Sequence: ISYTYNDNW
Kd [9]: ≥ 20 µM
Kd [10]: ≥ 20 µM
Kd [11]: ≥ 20 µM
Kd [12]: ≥ 20 µM
Kd [13]: ≥ 20 µM
Kd [14]: ≥ 20 µM
Kd [15]: ≥ 20 µM
Kd [16]: ≥ 20 µM
Kd [17]: ≥ 20 µM
Kd [18, 31]: 0.0014 µM
Kd [19]: ≥ 20 µM
Kd [20]: ≥ 20 µM
Kd [21]: ≥ 20 µM
Kd [22, 31]: 0.0641 µM
Kd [23, 31]: 0.0118 µM

Sequence: LENAQPGLL
Kd [1, 32]: 10.7 µM
Kd [2, 32]: 1.03 µM
Kd [3, 32]: 0.182 µM
Kd [4, 32]: 6.08 µM
Kd [5, 32]: 13.8 µM
Kd [6, 32]: ≥ 48 µM

Sequence: EIFSAWISH
IC50 [24]: 22.6 µM

Sequence: IAASNLEQF
Kd [18, 33]: 0.0226 µM
Kd [22, 33]: 0.202 µM
Kd [23, 33]: 0.05 µM
Kd [25]: 0.0479 µM

Sequence: SEGNATPGGY
Kd [1, 28]: 18.7 µM
Kd [2, 28]: ≥ 64.2 µM
Kd [3, 28]: ≥ 70.8 µM
Kd [4, 28]: 19.5 µM
Kd [5, 28]: 7.25 µM
Kd [6, 28]: ≥ 70 µM

Sequence: VEFHLDGEVL
Kd [1, 29]: 3.23 µM
Kd [2, 29]: 0.000877 µM
Kd [3, 29]: 0.14 µM
Kd [4, 29]: 3.76 µM
Kd [5, 29]: 0.935 µM
Kd [6, 29]: 6.95 µM

Sequence: KEGIVWVAT
Kd [1, 29]: ≥ 62.8 µM
Kd [2, 29]: 6.26 µM
Kd [3, 29]: 0.0296 µM
Kd [4, 29]: ≥ 20 µM
Kd [5, 29]: 12.3 µM
Kd [6, 29]: 0.0696 µM

Sequence: MDYLILKNL
Kd [1, 34]: ≥ 53.7 µM
Kd [2, 34]: ≥ 33.9 µM
Kd [3, 34]: 0.0185 µM
Kd [4, 34]: 11 µM
Kd [5, 34]: 2.74 µM
Kd [6, 34]: ≥ 33.2 µM

Sequence: ISAFPKNDF
Kd [7]: 663 nM
